What all share (assay): EMSA
Holding throughout (details): HilD/H-NS EMSA: 10 mM Tris-HCl pH 8, 50 mM KCl, 1 mM DTT, 0.5 mM EDTA, 5% glycerol, 10 ug/ml BSA, ~100 ng DNA, RT 20 min; PhoP EMSA: 20 mM Tris-HCl pH 7.4 …

In data set [1] the test system is PhoP-H6 (phosphorylated).
Data set [2] has as its system H-NS-FH (H-NS-3XFLAG-6XHis) (Escherichia coli EPEC E2348/69).
For data set [3], the system named is MBP-HilD (Salmonella enterica serovar Typhimurium SL1344?).

Consider ges promoter, for which the binding in data set [1] is more than 6 µM. On the same count and under the same terms, the same measure for grhD1 promoter (PhoP EMSA): 3 µM. As for grhD1 upstream region (HilD/H-NS EMSA), the binding is 0.5 µM in data set [2] and more than 1 µM in data set [3].

In data set [1], orgB promoter displayed a binding of 3 µM. sigD regulatory region: the binding in data set [2] and in data set [3] was more than 1 µM each time. As to ssrAB regulatory region, in data set [2], the binding worked out at 0.25 µM.

The values are drawn from article PMC5859253.
